Usually stoichiometry N stands for the number of molecules, sites or subunits per partner or assembly.

Positions count from the first letter of the chain named. Names and notes keep the numbering of the source.

Consider 2 proteins from publication doi:10.1101/2025.02.21.639491 (bioRxiv, 2025).

This data set deals with the molecule itself. The data set is described as follows: mass photometry.

B1: wild-type mouse PADI6 (peptidyl arginine deiminase 6) (natural protein, UniProt Q8K3V4 1-682, looked up)
chain: MSFQNSLSLSLVNPTHALCMVGMEITLDISKCAPDKCKSFTIRGSPRILIHISSSVIAGKEDTVVWRSMNHPTVALVRMVAPSPTVDEDKVLVSYFCPDQEVPTATAVLFLTGIEISLEADIYRDGQLDMPSDKQAKKKWMWGMNGWGAILLVNCSPNAVGQPDEQSFQEGPREIQNLSQMNVTVEGPTSILQNYQLILHTSEEEAKKTRVYWSQRGSSAYELVVGPNKPVYLLPTFENRRKEAFYVEATEFPSPSFSGLISLSLSLVEKAHDECIPEIPLYKDTVMFRVAPYIFMPSTQMPLEVYLCRELQLQGFVDSVTKLSEKSKVQVVKVYEDPNRQSKWLQDEMAFCYTQAPHKTVSLILDTPRVSKLEDFPMKYTLTPGSGYLIRQTEDHRVASLDSIGNLMVSPPVKAQGKDYPLGRVLIGGSFYPSSEGRDMNKGLREFVYAQQVQAPVELFSDWLMTGHMDQFMCFVPTNDKNNDQKDFRLLLASPSACFELFEQKQKEGYGNVTLFEDIGAEQLLSNGRESKTISQILADKSFREQNTYVEKCISLNRTLLKTELGLEDKDIILIPQLFCLEQLTNVPSNQQSTKLFARPYFPDMLQIIVLGKNLGIPKPFGPKINGTCCLEEKVCGLLEPLGLKCTFIDDFDCYLANIGDVCASAIINRVPFAFKWWKMTP
B1: the “stoichiometry N” value stood at 2.

B2: mouse PADI6 C663A (natural protein, UniProt Q8K3V4 1-682, looked up)
chain: B1 chain with C663A
In the case of B2, the “stoichiometry N” value was determined as 2.
